# Assay results from US8722052B2, “Vaccinia virus protein A46 peptide and use thereof” (priority 2008, dated 2014).
# Entries after “also recorded” stand apart in the source; their conditions may differ. Square brackets hold non-standard residues; d marks the D form. Ends that are not written are not given here.
# Target: T1, TLR4 (Mus musculus, UniProt Q9QUK6)
# T1 sequence (Q9QUK6 26-835): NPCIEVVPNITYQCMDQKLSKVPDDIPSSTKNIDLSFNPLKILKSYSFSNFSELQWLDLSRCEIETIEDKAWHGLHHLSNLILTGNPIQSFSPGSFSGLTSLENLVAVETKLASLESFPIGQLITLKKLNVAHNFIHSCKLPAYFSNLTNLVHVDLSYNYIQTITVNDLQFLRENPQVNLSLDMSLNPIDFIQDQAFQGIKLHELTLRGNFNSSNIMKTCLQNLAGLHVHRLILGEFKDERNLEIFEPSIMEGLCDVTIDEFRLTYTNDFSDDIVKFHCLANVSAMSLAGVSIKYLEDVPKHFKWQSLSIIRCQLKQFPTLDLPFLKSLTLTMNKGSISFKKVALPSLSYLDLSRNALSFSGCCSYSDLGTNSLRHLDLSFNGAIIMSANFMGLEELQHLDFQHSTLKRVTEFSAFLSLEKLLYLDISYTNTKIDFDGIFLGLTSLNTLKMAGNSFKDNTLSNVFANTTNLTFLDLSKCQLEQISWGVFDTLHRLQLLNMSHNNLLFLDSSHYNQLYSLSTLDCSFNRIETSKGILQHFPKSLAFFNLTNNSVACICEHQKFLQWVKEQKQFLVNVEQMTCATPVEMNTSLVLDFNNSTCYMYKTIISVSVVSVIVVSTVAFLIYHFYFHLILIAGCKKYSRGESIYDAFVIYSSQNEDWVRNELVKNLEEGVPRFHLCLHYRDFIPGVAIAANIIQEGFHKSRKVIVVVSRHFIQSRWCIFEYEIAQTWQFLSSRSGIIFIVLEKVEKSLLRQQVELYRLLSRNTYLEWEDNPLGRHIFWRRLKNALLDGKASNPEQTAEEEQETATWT
# T1 sequence (Q9JHF9 19-160 partner): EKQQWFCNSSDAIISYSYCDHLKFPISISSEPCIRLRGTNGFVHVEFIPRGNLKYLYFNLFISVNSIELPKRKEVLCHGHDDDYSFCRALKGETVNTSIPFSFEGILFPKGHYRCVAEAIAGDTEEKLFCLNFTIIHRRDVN
# Assay: LPS-induced TNFα in immortalised murine macrophages, ELISA
# Format: cell-based
# Parameters: endogenous in cells; immortalised murine bone-marrow-derived macrophages
# Settings: peptide 1, 5 or 25 μM 1 h before 10 ng/ml LPS, 6 h
# Protocol: FIGS. 14A and B are bar charts showing the comparison of the inhibitory effect of the L- and D-forms of A464 on LPS-induced TNFα in primary human and murine cells. PBMC (1×10^6 cells/ml, (A)) or immortalised murine macrophages (1.5×10^5 cells/ml, (B)) were seeded in 96 well plates 24 hours before treatment. L-form and D-form A464 peptides (with the 9R delivery peptide on the C-terminus, SEQ ID NO. 20) were added to the cells at a concentration of 1, 5 or 25 μM 1 hour before stimulating with 10 ng/ml LPS. Supernatants were collected 6 hours after stimulation and assayed for either human (A) or murine (B) TNFα production by ELISA. No peptides were added to the control wells (black bars). Data is representative of at least three experiments each performed in triplicate and is expressed as mean±s.d;
# FIGS. 15A and B are bar charts showing the effect of the D-form A464 peptide with the TAT delivery sequence on LPS induced TNFα in primary human and murine cells. PBMC (A) and immortalised murine macrophages (B) were seeded in 96 well plates 24 hours before treatment. D-form of A467 (SEQ ID NO. 37) and A464 (SEQ ID NO. 36) with the TAT delivery sequence were added to the cells at a concentration of 1, 5 or 25 μM 1 hour before stimulating with 10 ng/ml LPS. The peptides were added into the unstimulated control wells at 25 μM. Supernatants were collected 6 hours after stimulation and assayed for either human (A) or murine (B) TNFα production by ELISA. No peptides were added to the control wells (black bars). Data is representative of at least three experiments each performed in triplicate and is expressed as mean±s.d;
# FIGS. 16A and B are bar charts showing the effect of attaching 9R to the N-terminus of A464 on LPS-induced TNFα in primary human and murine cells. Immortalised murine macrophages (A) and PBMC (B) were seeded in 96 well plates 24 hours before treatment. L-form of A467 (SEQ ID NO. 39) and A464 (SEQ ID NO. 38) with the 9R-delivery sequence at the N-terminus were added to the cells at a concentration of 1, 5 or 25 μM 1 hour before stimulating with 10 ng/ml LPS. The peptides were added into the unstimulated control wells at […]. Supernatants were collected 6 hours after stimulation and assayed for either murine (A) or human (B) TNFα production by ELISA. No peptides were added to the control wells (black bars). Data is representative of at least three experiments each performed in triplicate and is expressed as mean±s.d;
# FIGS. 17A and B are bar charts showing the effect of the D-form A464 with 9R at the N-terminus on LPS-induced TNFα in primary human and murine cells. Immortalised murine macrophages (A) and PBMC (B) were seeded in 96 well plates 24 hours before treatment. D-form of A467 (SEQ ID NO. 39) and A464 (SEQ ID NO. 38) peptides with the 9R-delivery sequence at N-terminus were added to the cells at a concentration of 1, 5 or 25 μM 1 hour before stimulating with 10 ng/ml LPS. The peptides were added into the unstimulated control wells at 25 μM. Supernatants were collected 6 hours after stimulation and assayed for either murine (A) or human (B) TNFα production by ELISA. No peptides were added to the control wells (black bars). Data is representative of at least three experiments each performed in triplicate and is expressed as mean±s.d;
# FIGS. 18A and B are bar charts showing the effect of shortened A464 peptides with deletions of N- and C-terminal amino acids on LPS-induced TNFα in murine macrophages. Immortalised murine macrophages were seeded in 96 well plates (1.5×10^5 cells/ml) 24 hours before treatment. A464 peptides with a deletion of one (N-1) (SEQ ID NO. 40) or two (N-2) (SEQ ID NO. 41) amino acids from the N-terminus (A), or three (C-3) (SEQ ID NO. 42) or six (C-6) (SEQ ID NO. 43) amino acids from the C-terminus (B), were added to the cells at a concentration of 1, 5 or 25 μM 1 hour before stimulating with 10 ng/ml LPS. Peptides were added to the control wells at 25 μM. […]
row,Substance,inhibition of LPS-induced mTNFα production
1,9RN-A464 (RRRRRRRRRKYSFKLILAEY) [Peptide 9RN-A464],complete inhibition was observed at 1 μM
2,D-9RN-A464 ([dR][dR][dR][dR][dR][dR][dR][dR][dR][dK][dY][dS][dF][dK][dL][dI][dL][dA][dE][dY]) [Peptide D-9RN-A464],no inhibition at 1 μM
3,KYSFKLILAEYRRRRRRRRR [Peptide A464],significant inhibition of TLR4 by A464 (SEQ ID No. 20) at 1 μM; also recorded: complete inhibition at 1
